Measurements taken from patent US10442850.

How the values were obtained:
[1] = biological target: A1/A3-C1-C2 part of thrombin-activated cFVIII-BDD (canine) (UniProt O18806); experiment: cell-based or functional assay
[2] = biological target: A1/A3-C1-C2 part of thrombin-activated human FVIII-BDD R1645H (human) (UniProt P00451); experiment: cell-based or functional assay
Sequence of UniProt P00451 (P00451 20-391, chain 1 of 2): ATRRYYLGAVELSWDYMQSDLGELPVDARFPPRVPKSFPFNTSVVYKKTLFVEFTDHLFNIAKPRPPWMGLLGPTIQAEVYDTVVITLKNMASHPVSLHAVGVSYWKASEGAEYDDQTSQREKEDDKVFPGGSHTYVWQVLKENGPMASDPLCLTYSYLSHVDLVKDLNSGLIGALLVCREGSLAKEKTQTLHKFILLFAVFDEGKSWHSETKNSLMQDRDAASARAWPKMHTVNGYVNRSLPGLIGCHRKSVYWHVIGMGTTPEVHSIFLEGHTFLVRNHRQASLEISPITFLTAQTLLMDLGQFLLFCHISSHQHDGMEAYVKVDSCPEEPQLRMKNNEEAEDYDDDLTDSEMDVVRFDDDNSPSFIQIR
Sequence of UniProt P00451 (P00451 1709-2351, chain 2 of 2): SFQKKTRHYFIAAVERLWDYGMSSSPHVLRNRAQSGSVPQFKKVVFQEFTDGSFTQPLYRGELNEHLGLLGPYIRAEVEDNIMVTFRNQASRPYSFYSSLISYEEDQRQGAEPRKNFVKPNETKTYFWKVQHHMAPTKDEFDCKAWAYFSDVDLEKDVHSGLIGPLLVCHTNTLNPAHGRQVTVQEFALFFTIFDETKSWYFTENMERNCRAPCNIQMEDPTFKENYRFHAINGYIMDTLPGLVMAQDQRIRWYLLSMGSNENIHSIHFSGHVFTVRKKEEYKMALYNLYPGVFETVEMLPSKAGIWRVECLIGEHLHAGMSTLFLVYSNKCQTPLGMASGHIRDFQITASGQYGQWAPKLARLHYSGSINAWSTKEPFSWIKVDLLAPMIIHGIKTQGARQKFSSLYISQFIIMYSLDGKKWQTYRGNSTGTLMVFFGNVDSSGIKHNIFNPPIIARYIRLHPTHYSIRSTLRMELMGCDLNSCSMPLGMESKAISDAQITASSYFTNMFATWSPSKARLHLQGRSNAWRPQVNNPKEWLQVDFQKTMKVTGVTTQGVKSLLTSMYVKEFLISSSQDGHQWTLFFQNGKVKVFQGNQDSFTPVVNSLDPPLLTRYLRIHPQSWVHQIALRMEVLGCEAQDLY

Sequence of UniProt O18806 (O18806 20-385, chain 1 of 2): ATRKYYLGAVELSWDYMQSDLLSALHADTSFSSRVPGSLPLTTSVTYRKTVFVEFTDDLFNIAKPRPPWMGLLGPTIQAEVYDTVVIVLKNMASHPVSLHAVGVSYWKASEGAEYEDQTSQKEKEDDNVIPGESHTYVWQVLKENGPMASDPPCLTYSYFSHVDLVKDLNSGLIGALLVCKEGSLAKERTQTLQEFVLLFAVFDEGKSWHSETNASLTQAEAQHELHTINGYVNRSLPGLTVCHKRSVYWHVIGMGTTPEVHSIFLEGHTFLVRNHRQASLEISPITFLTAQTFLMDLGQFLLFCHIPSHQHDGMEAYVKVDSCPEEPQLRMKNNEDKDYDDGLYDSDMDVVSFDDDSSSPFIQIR
Sequence of UniProt O18806 (O18806 1701-2343, chain 2 of 2): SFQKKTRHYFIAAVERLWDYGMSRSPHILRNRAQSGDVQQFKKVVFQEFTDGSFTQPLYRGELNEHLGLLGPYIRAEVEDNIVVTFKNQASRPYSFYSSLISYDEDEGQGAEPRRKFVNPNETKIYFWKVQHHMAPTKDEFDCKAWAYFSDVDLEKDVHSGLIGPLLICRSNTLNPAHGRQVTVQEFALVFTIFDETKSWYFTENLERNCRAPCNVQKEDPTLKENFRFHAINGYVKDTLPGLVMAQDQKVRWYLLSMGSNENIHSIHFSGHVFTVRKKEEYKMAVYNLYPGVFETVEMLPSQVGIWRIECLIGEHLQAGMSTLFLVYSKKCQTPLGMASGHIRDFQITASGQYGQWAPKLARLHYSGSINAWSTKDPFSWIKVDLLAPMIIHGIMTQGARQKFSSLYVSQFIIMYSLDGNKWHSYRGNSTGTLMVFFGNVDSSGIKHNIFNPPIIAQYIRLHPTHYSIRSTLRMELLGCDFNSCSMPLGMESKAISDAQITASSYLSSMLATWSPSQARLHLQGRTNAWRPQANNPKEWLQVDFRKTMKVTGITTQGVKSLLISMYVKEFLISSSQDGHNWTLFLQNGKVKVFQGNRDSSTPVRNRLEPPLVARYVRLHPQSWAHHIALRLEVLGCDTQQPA

Row | Substance | half-life of activated FVIII cofactor activity after thrombin activation (purified component Xase assay or clotting assay) (fold (against hFVIII)) [1] | half-life of activated FVIII (Xase assay, A2-domain stability) (fold (against WT hBFVIII)) [2]
1 | A2 domain of thrombin-activated cFVIII-BDD (from UniProt O18806 386-753) | 3 | 
2 | A2 domain of thrombin-activated human FVIII-BDD R1645H (from UniProt P00451 392-759) |  | 3
